The source of these data is article PMC2950840.

The experiment has as its target SARS-CoV 3C-like protease (3CL^pro) (SARS-CoV (strain CUHK-Su10)) (UniProt P0C6X7). Description: SEC; […] (20 mM Tris, 20 mM NaCl, pH 7.8); […]. A general note: SEC sorts molecules by how far they enter the pores of the column.

The stoichiometry N is a count of units in the complex or per binding partner. As to “SARS-CoV 3C-like protease (3CL^pro) (from UniProt P0C6X7 3241-3546) (enzyme)”, the stoichiometry N turned out to be 2.
